Columns and labels:
[1] = biological target: wild-type Tetrahymena thermophila MacNup98A (Mac98A) FG domain (Tetrahymena thermophila); experiment: partition of fluorescent probes into FG particles (confocal laser scanning microscopy); FG particles mixed with permeation probes (2 μM Alexa488-labelled NTF2 and 10 μM mCherry in assay buffer, 15 μl + 15 μl); 20 mM NaPi pH 6.8, 150 mM NaCl, 5 mM DTT; 21 °C; partition coefficient = signal inside FG phase: signal in buffer
[2] = biological target: the molecule itself; experiment: MAS NMR, 1H-13C cross-polarization of the FG phase; FG phase from u-[13C,15N]-labelled protein, 36 °C, 20 kHz MAS; cross-polarization against direct excitation
[3] = biological target: T1, prf.GLFG_(52 × 12); experiment: partition of Atto488-coupled FG domains into FG particles (confocal laser scanning microscopy); 20 μM unlabelled prf.GLFG_(52 × 12) premixed with 0.5 μM Atto488-labelled species (GAFG: 3 μM); 20 mM NaPi pH 6.8, 150 mM NaCl, 5 mM DTT; 21 °C; apparent partition coefficient = Atto488 signal IN: OUT of the FG particles; conditions: both partners purified
T1 construct: engineered from the Tetrahymena thermophila MacNup98A FG domain; plasmid pSNG064; Isotope-labelled (15N, 13C) for NMR; also called perfect repeat; source: E. coli, inclusion bodies, Ni(II) chelate column, tag cut off with bdSENP1 protease, lyophilized; not shown: His14-ZZ-scSUMO, N-terminal, cleaved
T1 chain: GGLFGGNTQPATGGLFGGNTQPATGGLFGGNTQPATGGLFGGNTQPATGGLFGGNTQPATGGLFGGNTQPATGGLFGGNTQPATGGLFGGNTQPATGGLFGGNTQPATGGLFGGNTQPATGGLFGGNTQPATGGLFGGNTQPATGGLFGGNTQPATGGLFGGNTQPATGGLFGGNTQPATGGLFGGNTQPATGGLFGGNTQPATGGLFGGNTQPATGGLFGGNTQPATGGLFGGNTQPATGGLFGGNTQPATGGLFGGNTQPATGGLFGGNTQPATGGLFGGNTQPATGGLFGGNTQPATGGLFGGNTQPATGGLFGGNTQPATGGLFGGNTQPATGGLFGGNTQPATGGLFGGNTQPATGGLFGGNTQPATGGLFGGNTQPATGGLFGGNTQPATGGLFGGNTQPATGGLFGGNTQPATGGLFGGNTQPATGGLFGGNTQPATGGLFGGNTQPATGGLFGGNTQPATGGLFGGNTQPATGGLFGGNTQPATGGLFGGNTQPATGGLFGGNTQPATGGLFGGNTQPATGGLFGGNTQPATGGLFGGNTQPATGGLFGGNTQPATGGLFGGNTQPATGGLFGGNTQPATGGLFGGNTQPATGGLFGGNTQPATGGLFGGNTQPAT

nuclear transport receptor NTF2 (labelled with Alexa Fluor 488) (from UniProt P61970 1-127) (natural protein)
partition coefficient [1]: 2000

B1: Pro-free prf.GLFG_(52 × 12) (other)
chain: GGLFGGATNSQTGGLFGGATNSQTGGLFGGATNSQTGGLFGGATNSQTGGLFGGATNSQTGGLFGGATNSQTGGLFGGATNSQTGGLFGGATNSQTGGLFGGATNSQTGGLFGGATNSQTGGLFGGATNSQTGGLFGGATNSQTGGLFGGATNSQTGGLFGGATNSQTGGLFGGATNSQTGGLFGGATNSQTGGLFGGATNSQTGGLFGGATNSQTGGLFGGATNSQTGGLFGGATNSQTGGLFGGATNSQTGGLFGGATNSQTGGLFGGATNSQTGGLFGGATNSQTGGLFGGATNSQTGGLFGGATNSQTGGLFGGATNSQTGGLFGGATNSQTGGLFGGATNSQTGGLFGGATNSQTGGLFGGATNSQTGGLFGGATNSQTGGLFGGATNSQTGGLFGGATNSQTGGLFGGATNSQTGGLFGGATNSQTGGLFGGATNSQTGGLFGGATNSQTGGLFGGATNSQTGGLFGGATNSQTGGLFGGATNSQTGGLFGGATNSQTGGLFGGATNSQTGGLFGGATNSQTGGLFGGATNSQTGGLFGGATNSQTGGLFGGATNSQTGGLFGGATNSQTGGLFGGATNSQTGGLFGGATNSQTGGLFGGATNSQTGGLFGGATNSQT
notes: also called thioflavin-T-positive, proline-free variant of prf.GLFG_(52 × 12)
binding result [2]: binds

B2: Atto488-coupled GLLG//L_(52 × 12) (other)
chain: GSGLLGNTGLAPAGGLLGNTQLQQGGGLLGQPQLTQGGGLLGQTGLTTGGGLLGGATLTAPGGLLGGGGLNPTGGLLGGNNLQQTGGLLGQGTLQTGGGLLGAPQLNQGGGLLGGGTLTTGGGLLGANTLTGGGGLLGGPSLPTTAGLLGSNNLTTGGGLLGQPALTNNGGLLGGQTLNQASGLLGANNLPPTNGLLGNNNLPQTAGLLGGATLTGNTGLLGGANLTGGGGLLGNNTLNPTGGLLGATNLAGGGGLLGGGALTGGGGLLGGGNLQTGGGLLGTANLTTAGGLLGGGNLQPQNGLLGNNNLPATGGLLGQTNLAAPQGLLGGTNLNAASGLLGQKPLSANGVLTKPNEKNLCYAISNGTDFCIFELALTQRKLVKAGQLKPGAQAGGLLGQPALNTQGGLLGGGGLATTPGLLGGAQLNTTGGLLGGQNLQAGGGLLGAPNLAAATGLLGAGNLNTQGGLLGAKPLATGGGLLGQPALTQAGGLLGNTALPAGGGLLGGATLTPGGGLLGGNTLATGGGLLGGNTLGATGGLLGGQQLNNQGGLLGNTNLNTGGGLLGGATLTTGGGLLGGSTLATGGGLLGGASLPAAGGLLGGAALQQNSGLLGGATLGQTGGLLGGATLQQGGGLLGQTALNPGGGLLGAANLTTQPGLLGGNNLAATTSC
modifications: Atto488 (coupled)
partition coefficient [3]: 110

Reference: publication PMC8938434, “Atomic resolution dynamics of cohesive interactions in phase-separated Nup98 FG domains” (Nature Communications, 2022)
